Measured values: paper PMC10197580

Target: T1, CST with the His6-MBP tag cleaved (human), Q2NKJ3
T1 chain 1: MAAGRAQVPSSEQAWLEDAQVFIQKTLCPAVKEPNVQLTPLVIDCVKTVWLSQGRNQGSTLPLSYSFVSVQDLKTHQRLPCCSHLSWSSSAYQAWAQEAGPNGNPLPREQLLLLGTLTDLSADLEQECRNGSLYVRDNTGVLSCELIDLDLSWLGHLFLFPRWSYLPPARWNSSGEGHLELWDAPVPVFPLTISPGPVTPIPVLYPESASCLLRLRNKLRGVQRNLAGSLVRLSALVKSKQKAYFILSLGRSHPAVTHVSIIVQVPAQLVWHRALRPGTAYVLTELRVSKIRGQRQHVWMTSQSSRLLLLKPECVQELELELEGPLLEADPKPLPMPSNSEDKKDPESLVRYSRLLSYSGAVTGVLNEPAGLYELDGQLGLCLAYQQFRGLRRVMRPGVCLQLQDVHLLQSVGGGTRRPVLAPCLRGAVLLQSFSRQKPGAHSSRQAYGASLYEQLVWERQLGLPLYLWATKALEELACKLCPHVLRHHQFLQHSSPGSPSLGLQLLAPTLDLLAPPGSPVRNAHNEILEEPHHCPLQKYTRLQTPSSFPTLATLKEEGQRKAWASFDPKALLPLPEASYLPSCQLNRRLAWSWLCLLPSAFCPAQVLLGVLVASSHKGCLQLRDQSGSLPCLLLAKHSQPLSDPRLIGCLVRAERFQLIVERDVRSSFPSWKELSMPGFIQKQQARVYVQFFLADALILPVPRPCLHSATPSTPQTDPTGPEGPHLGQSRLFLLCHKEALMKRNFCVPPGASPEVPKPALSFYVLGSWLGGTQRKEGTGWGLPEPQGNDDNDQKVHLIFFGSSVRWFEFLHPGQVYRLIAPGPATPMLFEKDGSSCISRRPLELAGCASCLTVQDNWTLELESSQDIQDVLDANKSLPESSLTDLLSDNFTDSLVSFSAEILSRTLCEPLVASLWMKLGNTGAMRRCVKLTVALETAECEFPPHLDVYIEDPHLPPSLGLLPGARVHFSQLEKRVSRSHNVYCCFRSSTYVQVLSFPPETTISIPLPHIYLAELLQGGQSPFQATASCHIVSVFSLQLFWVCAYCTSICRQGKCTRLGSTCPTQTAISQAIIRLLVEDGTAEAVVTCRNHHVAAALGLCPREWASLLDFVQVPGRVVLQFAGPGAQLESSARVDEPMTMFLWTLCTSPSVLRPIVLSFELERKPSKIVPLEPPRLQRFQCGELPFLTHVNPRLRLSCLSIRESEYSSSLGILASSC
T1 chain 2: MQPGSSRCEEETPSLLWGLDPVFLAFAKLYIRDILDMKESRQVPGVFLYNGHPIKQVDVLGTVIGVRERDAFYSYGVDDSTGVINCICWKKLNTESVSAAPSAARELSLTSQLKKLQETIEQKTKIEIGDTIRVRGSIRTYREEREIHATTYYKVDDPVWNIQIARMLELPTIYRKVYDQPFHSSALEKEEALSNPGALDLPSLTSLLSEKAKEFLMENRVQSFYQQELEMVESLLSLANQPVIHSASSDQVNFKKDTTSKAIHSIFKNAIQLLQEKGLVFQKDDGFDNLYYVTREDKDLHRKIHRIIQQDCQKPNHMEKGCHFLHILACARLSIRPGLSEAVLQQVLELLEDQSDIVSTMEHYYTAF
T1 chain 3: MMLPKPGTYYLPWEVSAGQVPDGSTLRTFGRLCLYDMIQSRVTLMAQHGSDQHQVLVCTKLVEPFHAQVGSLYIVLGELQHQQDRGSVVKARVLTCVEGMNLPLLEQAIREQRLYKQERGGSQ
Test: negative-stain EM
Conditions: remark: other sources report otherwise

B1: CST with the His6-MBP tag cleaved, Q2NKJ3;Q9H668;Q86WV5 (complex)
chain 1: MAAGRAQVPSSEQAWLEDAQVFIQKTLCPAVKEPNVQLTPLVIDCVKTVWLSQGRNQGSTLPLSYSFVSVQDLKTHQRLPCCSHLSWSSSAYQAWAQEAGPNGNPLPREQLLLLGTLTDLSADLEQECRNGSLYVRDNTGVLSCELIDLDLSWLGHLFLFPRWSYLPPARWNSSGEGHLELWDAPVPVFPLTISPGPVTPIPVLYPESASCLLRLRNKLRGVQRNLAGSLVRLSALVKSKQKAYFILSLGRSHPAVTHVSIIVQVPAQLVWHRALRPGTAYVLTELRVSKIRGQRQHVWMTSQSSRLLLLKPECVQELELELEGPLLEADPKPLPMPSNSEDKKDPESLVRYSRLLSYSGAVTGVLNEPAGLYELDGQLGLCLAYQQFRGLRRVMRPGVCLQLQDVHLLQSVGGGTRRPVLAPCLRGAVLLQSFSRQKPGAHSSRQAYGASLYEQLVWERQLGLPLYLWATKALEELACKLCPHVLRHHQFLQHSSPGSPSLGLQLLAPTLDLLAPPGSPVRNAHNEILEEPHHCPLQKYTRLQTPSSFPTLATLKEEGQRKAWASFDPKALLPLPEASYLPSCQLNRRLAWSWLCLLPSAFCPAQVLLGVLVASSHKGCLQLRDQSGSLPCLLLAKHSQPLSDPRLIGCLVRAERFQLIVERDVRSSFPSWKELSMPGFIQKQQARVYVQFFLADALILPVPRPCLHSATPSTPQTDPTGPEGPHLGQSRLFLLCHKEALMKRNFCVPPGASPEVPKPALSFYVLGSWLGGTQRKEGTGWGLPEPQGNDDNDQKVHLIFFGSSVRWFEFLHPGQVYRLIAPGPATPMLFEKDGSSCISRRPLELAGCASCLTVQDNWTLELESSQDIQDVLDANKSLPESSLTDLLSDNFTDSLVSFSAEILSRTLCEPLVASLWMKLGNTGAMRRCVKLTVALETAECEFPPHLDVYIEDPHLPPSLGLLPGARVHFSQLEKRVSRSHNVYCCFRSSTYVQVLSFPPETTISIPLPHIYLAELLQGGQSPFQATASCHIVSVFSLQLFWVCAYCTSICRQGKCTRLGSTCPTQTAISQAIIRLLVEDGTAEAVVTCRNHHVAAALGLCPREWASLLDFVQVPGRVVLQFAGPGAQLESSARVDEPMTMFLWTLCTSPSVLRPIVLSFELERKPSKIVPLEPPRLQRFQCGELPFLTHVNPRLRLSCLSIRESEYSSSLGILASSC
chain 2: MQPGSSRCEEETPSLLWGLDPVFLAFAKLYIRDILDMKESRQVPGVFLYNGHPIKQVDVLGTVIGVRERDAFYSYGVDDSTGVINCICWKKLNTESVSAAPSAARELSLTSQLKKLQETIEQKTKIEIGDTIRVRGSIRTYREEREIHATTYYKVDDPVWNIQIARMLELPTIYRKVYDQPFHSSALEKEEALSNPGALDLPSLTSLLSEKAKEFLMENRVQSFYQQELEMVESLLSLANQPVIHSASSDQVNFKKDTTSKAIHSIFKNAIQLLQEKGLVFQKDDGFDNLYYVTREDKDLHRKIHRIIQQDCQKPNHMEKGCHFLHILACARLSIRPGLSEAVLQQVLELLEDQSDIVSTMEHYYTAF
chain 3: MMLPKPGTYYLPWEVSAGQVPDGSTLRTFGRLCLYDMIQSRVTLMAQHGSDQHQVLVCTKLVEPFHAQVGSLYIVLGELQHQQDRGSVVKARVLTCVEGMNLPLLEQAIREQRLYKQERGGSQ
Q: B1 was tested. Which stoichiometry N did it give?
A: Its stoichiometry N is 2.
